Laboratory results reported in patent US20240319212A1, “METHOD OF MEASURING THE ENDOCYTIC VITAMIN D STATUS” (Immundiagnostik AG, priority 2018, published 2024).

How the values were obtained:
[1] = molecular target: vitamin D binding protein (DBP) alone, without added vitamin D metabolite (human) (UniProt P02774); assay: MST, NT-647-labelled DBP (50 nM), megalin fragment titrated, absence of 25-OH vitamin D3; microscale thermophoresis; NT-647-labelled DBP, purified soluble M1 titrated 0.488-1000 nmol/L; absence of 25-OH vitamin D3
[2] = molecular target: complex of vitamin D binding protein with 25-hydroxyvitamin D3 (DBP:25(OH)D3) (human) (UniProt P02774); assay: MST, NT-647-labelled DBP (50 nM) with VD3 (50 nM), megalin fragment titrated
complex of vitamin D binding protein with 25-hydroxyvitamin D3 (DBP:25(OH)D3) (human), sequence (P02774 17-474 limits assumed, one chain of several): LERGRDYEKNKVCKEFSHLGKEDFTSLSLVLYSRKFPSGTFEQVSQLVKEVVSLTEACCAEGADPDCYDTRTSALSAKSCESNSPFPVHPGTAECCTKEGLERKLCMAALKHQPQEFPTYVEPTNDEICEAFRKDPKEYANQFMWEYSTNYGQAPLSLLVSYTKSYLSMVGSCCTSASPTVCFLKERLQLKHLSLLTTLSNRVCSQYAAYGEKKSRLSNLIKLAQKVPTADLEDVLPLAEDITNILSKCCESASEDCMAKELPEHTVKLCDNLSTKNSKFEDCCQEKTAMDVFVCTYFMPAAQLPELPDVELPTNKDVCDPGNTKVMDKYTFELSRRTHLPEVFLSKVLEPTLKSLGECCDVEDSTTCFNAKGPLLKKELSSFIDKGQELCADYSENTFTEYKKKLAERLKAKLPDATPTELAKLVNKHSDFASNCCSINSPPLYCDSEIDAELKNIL

vitamin D binding protein (DBP) alone, without added vitamin D metabolite (human), sequence (P02774 17-474 limits assumed): as the sequence (P02774 17-474 limits assumed, one chain of several) above

Substance: soluble recombinant megalin M1 fragment (amino acids 26 to 386 of human LRP2/megalin, C-terminal 6x His tag) (from UniProt P98164 26-386) (receptor)
- Kd [1]: 442 nM
- Kd [2]: 45.6 nM
